The source of these data is CN117567625A (INST MED BIOTECHNOLOGY CAMS, dated 2024).

This assay concerns the target T1, Claudin18.2 on 人胃癌NUGC4细胞 (human, UniProt P56856-2 1-261).
T1 construct: whole, on cells
T1 sequence (looked up): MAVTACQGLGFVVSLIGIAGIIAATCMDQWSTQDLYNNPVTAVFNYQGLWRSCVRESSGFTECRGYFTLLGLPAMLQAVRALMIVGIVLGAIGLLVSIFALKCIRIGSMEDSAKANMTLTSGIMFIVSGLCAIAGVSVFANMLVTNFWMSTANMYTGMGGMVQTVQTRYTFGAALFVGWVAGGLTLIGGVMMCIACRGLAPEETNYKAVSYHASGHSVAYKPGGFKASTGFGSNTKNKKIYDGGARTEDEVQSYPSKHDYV
Nature of the assay: flow cytometry on NUGC4 cells, anti-mouse IgG Fc-FITC. A general note: Flow cytometry measures light scatter and fluorescence of single cells or particles in a stream.

B1: 抗Claudin18.2小鼠单克隆抗体m1D6 (antibody, V domains shown)
VH: QVQLQQPGPELVMPGASVKLSCKASGYTFTSYRMHWVKQRPGQGLEWIGEIDPSNSYTNYNQNFRGRSTLTVDKSSSTAYMQLSSLTSGDSAVYYCARLGRGNTLGYWGQGTSVTVSS
VL: DIVMTQSPSSLTVTAGEKVTVGCKSSQSLLNSGNQKNYLTWYQQKPGQPPKLLIYWASTRESGVPDRFTGSGSGTDFTLTIRSVQAEDLAVYYCQNGYSYPFTFGSGTKLEIKR
notes: Both printed entries appear to start with a leader peptide ahead of the variable region; For in vivo imaging the antibody was labelled with Dylight680
For B1, the binding result was “binds”.
